The values that follow come from patent US20050147612A1 (published 2005).

For one experiment, the target named is T1, FR3exFc (human).
T1 construct: Said to be entirely in dimeric form; also called FR3/Fc; FGFR3/Fc
Put plainly: BIAcore, mini-antibody format.

Another experiment deals with FGFR3 wild type on cells (human, UniProt P22607 23-806). Put plainly: cell-based or functional assay.
FGFR3 wild type on cells, sequence (P22607 23-806 limits assumed): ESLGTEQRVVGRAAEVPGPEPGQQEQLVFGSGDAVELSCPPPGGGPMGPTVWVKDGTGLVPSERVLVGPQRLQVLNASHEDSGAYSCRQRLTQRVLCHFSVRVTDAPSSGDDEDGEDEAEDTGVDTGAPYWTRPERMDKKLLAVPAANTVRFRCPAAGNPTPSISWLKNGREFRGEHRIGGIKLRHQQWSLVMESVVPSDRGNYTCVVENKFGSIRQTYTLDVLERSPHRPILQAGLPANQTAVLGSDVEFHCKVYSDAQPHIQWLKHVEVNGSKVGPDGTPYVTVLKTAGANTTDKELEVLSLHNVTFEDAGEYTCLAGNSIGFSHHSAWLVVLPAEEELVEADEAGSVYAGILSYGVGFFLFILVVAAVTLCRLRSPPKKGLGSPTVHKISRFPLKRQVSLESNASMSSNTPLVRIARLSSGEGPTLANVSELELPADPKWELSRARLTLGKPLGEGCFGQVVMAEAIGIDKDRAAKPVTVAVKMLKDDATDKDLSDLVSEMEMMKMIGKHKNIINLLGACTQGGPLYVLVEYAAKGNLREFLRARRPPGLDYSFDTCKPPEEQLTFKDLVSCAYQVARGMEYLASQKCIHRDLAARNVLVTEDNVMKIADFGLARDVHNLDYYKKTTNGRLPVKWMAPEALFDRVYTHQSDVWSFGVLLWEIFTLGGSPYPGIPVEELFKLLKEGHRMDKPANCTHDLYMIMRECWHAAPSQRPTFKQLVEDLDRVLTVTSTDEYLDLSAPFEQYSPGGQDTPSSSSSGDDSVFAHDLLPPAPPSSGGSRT

T1 sequence (chain, as listed by the source limits assumed): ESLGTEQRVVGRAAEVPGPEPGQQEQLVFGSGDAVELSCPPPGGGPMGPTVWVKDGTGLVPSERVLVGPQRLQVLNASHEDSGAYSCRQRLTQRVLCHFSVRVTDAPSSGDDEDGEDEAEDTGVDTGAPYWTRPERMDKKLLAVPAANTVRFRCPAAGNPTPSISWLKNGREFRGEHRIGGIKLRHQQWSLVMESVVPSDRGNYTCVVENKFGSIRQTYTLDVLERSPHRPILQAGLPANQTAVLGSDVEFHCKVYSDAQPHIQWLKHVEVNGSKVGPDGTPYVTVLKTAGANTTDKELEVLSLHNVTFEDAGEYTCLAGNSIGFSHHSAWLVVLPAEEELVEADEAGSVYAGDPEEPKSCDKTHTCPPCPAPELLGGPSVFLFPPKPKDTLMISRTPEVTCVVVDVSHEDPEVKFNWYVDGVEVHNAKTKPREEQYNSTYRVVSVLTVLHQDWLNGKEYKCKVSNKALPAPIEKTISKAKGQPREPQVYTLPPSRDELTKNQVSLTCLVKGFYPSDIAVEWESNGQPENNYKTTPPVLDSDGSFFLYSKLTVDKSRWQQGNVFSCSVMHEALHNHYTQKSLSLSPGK

B1: MS-Pro-24-dHLX-MH (other, not shown: a dimerising Fc or GST; small tags and cut ends)
VH: QVQLVQSGAEVKKPGSSVKVSCKASGGTFSSYAISWVRQAPGQGLEWMGGIIPIFGTANYAQKFQGRVTITADESTSTAYMELSSLRSEDTAVYYCARVNHWTYTFDYWGQGTLVTVSS
VL: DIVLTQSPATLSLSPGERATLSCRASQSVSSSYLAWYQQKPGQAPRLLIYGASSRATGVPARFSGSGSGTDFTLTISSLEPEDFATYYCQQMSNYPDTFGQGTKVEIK
modifications: Dimeric Fab mini-antibody: Fab fused to the dHLX helix and the MH tag. These parts are not in the letters.
notes: Fab mini-antibody format Fab-dHLX-MH (dimer of the Fab); copies: 2 + 2
Regarding B1, the affinity with FR3exFc, expressed as Kd, was 2 nM.

B2: MS-Pro-26-dHLX-MH (other, not shown: a dimerising Fc or GST; small tags and cut ends)
VH: QVQLVQSGAEVKKPGASVKVSCKASGYTFTSYYMHWVRQAPGQGLEWMGWINPNSGGTNYAQKFQGRVTMTRDTSISTAYMELSSLRSEDTAVYYCARGYWYAYFTYINYGYFDNWGQGTLVTVSS
VL: DIALTQPASVSGSPGQSITISCTGTSSDVGGYNYVSWYQQHPGKAPKLMIYDVSNRPSGVSNRFSGSKSGNTASLTISGLQAEDEADYYCQSYDNNSDVVFGGGTKLTVL
modifications: Dimeric Fab mini-antibody: Fab fused to the dHLX helix and the MH tag. These parts are not in the letters.
notes: Fab mini-antibody format Fab-dHLX-MH (dimer of the Fab); also called MSPRO26 Fab-dHLX; MSPRO26 dimeric dHLX format; copies: 2 + 2
With B2, in the experiment with FR3exFc, the Kd (commonly the constant that tells how readily two partners part at equilibrium) worked out at 2 nM. The “IC50, FDCP-FGFR3 proliferation assay with FGF9” value in the experiment with FGFR3 wild type on cells was found to be 8 nM.
